Blank lines part the entries; values can stand above or below the binder they belong to.
Experiments:
[1] = target: T1, native cynomolgus monkey CD96 on primary cynomolgus monkey T cells (cynomolgus monkey, UniProt A0A2K5TWV6 22-569); test: flow cytometry on activated primary cynomolgus monkey T cells (PE median MFI), pooled donor
T1 construct: whole, on cells
T1 sequence: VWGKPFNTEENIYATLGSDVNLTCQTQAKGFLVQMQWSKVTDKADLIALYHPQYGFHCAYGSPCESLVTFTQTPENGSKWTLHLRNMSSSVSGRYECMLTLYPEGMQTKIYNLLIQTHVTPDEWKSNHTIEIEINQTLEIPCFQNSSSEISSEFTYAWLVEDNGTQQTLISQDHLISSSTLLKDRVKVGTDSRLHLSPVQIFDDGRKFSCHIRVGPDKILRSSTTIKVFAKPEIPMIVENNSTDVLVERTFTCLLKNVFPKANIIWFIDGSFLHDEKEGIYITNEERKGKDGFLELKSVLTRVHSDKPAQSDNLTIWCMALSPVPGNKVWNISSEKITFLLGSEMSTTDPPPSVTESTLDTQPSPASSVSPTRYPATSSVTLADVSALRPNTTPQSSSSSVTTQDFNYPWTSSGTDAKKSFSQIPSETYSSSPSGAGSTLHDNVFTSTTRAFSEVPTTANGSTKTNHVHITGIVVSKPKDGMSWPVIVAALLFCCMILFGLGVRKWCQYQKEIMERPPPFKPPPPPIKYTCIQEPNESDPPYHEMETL

[2] = target: T2, human CD96v1 expressed on HEK cells (human, UniProt P40200 22-585); test: flow cytometry on transiently transfected HEK cells (normalised MFI), upper left panel
T2 construct: whole, on cells
T2 sequence (looked up): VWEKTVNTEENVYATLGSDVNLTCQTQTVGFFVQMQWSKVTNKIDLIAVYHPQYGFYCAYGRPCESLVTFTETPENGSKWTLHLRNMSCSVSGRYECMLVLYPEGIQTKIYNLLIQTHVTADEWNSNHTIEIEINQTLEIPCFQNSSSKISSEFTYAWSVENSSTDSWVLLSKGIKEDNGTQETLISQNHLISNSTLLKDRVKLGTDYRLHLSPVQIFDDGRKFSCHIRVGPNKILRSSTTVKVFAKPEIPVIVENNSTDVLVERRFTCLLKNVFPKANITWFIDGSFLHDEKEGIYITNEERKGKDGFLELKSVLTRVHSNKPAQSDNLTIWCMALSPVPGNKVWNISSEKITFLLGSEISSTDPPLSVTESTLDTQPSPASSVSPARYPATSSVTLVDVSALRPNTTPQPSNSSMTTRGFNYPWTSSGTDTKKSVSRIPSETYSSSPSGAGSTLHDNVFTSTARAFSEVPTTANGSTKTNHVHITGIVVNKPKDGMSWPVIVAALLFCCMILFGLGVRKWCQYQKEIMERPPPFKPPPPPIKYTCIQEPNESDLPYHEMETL

[3] = target: T3, cynomolgus monkey CD96v2 expressed on cells (cynomolgus monkey, UniProt A0A2K5TWV6 22-569); test: as above
T3 construct: also called CHO-cyCD96; Cyno CD96v2
T3 sequence: T1 sequence

[4] = target: T3, cynomolgus monkey CD96v2 expressed on …; test: flow cytometry, CHO cells expressing cynomolgus CD96v2
Method: CHO cells expressing human CD96v2 or cynomolgus monkey CD96v2 were prepared in PBS. The cynomolgus monkey CD96v2 cells were stained with 1 μM violet proliferation dye (VPD450). […] The stained CHO-cyCD96 and unstained CHO-huCD96 cells were combined and added to wells of a 384-well assay plate together with dilutions of test anti-CD96 binding proteins for 1h at 4° C. Cells were further incubated with anti-IgG APC conjugate antibody and the amount of surface bound antibody on each of the CHO-cyCD96 and CHO-huCD96 cells was determined by flow cytometry. Median fluorescence intensity (MFI) values were fitted using a 4 parameter logistic model to calculate the EC50 of binding.

- EC50 (read off the curve) [1]: ~0.06 nM
- EC50 (read off the curve) [2]: ~4 nM
- EC50 (read off the curve) [3]: ~8 nM
B1: 42Y073-86F08-66 (antibody, human IgG1, kappa)
heavy: not shown
light: DIQLTQSPSSLSASVGDRVTITCRASQSISSYLNWYQQKPGKAPKLLIYAASSLQSGVPSRFSGSGSGTDFTLTISSLQPEDFATYYCQQVLHTITFGGGTKVEIKRTVAAPSVFIFPPSDEQLKSGTASVVCLLNNFYPREAKVQWKVDNALQSGNSQESVTEQDSKDSTYSLSSTLTLSKADYEKHKVYACEVTHQGLSSPVTKSFNRGEC
notes: expressed in CHO or HEK cells; also called GSK 6097608; GSK6097608

- EC50 [4]: 0.08 nM
B2: 42Y073-86F08-3 (antibody, V domains shown)
VH: QVQLVQSGAEVKKPGSSVKVSCKASGGTFVNYAISWVRQAPGQGLEWMGGIIPALGTANYAQKFQGRVTITADESTSTAYMELSSLRSEDTAVYYCARGAGYYGDKDPMDVWGQGTTVTVSS
VL: DIQLTQSPSSLSASVGDRVTITCRASQSISSYLNWYQQKPGKAPKLLIYAASSLQSGVPSRFSGSGSGTDFTLTISSLQPEDFATYYCQQVLHTITFGGGTKVEIK

From patent publication US20240166747A1 (GlaxoSmithKline, published 2024)
